Reference: the nanobody polyreactivity screen of Harvey et al. (2022)

Test: yeast display, Sf9 membrane polyspecificity reagent, FACS + sequencing; frameworks hold sequencing errors
Method in brief: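 Nanobodies came from a synthetic yeast display library in Saccharomyces cerevisiae BJ5465, induced with galactose for 36–48 hours and stained for 1 hour at 4 °C with 10% biotinylated, detergent-solubilized Sf9 membrane reagent. Cells were enriched on streptavidin microbeads and then FACS-sorted, with low and high (top ~1%) gates set on anti-HA fluorescence for expression and streptavidin fluorescence for reagent binding. Each polyreactivity label reflects the gate a clone came from. Genes were amplified by colony PCR, sequenced by MiSeq 2 × 250 and filtered by CDR length.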
For “QVQLVESGGGLVQAGGSLRLSCAASGLILANYAMGWYRQAPGKERELVAAISSSGGSTYYADSVKGRFTISRDNAKNTVYLQMNSLKPEDTAVYYCAAYPLYRRRWTGDYWGQGTQVTVSS”, the “polyreactivity (PSR sort gate)” value was “high polyreactivity”. With “QVQLVESGGGLVQAGGSLRLSCAASGSTFVGNAMGWYRQAPGKERELVAGITSSGTSTYYADSVKGRFTMSRDNAKNSVYLQMNRLKPEDTAVYYCATDDADESYGFELFDYWGLGTQVTVSS” the “polyreactivity (PSR sort gate)” value was “low polyreactivity”. With “QVQLVESAGGLVQAGGRLLLSCAASGRIFAKYAMGWYRQAPGKERELVAAIRSTGGGTYYADSVKGRFTISRDNAKNTVYLQMNSLKPEDTAVYYCDARQTYYKYGYWGQGTQVTVSS” the “polyreactivity (PSR sort gate)” value was “high polyreactivity”. For “QVQLVESGGGLVQAGGSLRLSCAASGGTFSGYTMGWYRQAPGKEWELVAAITRSGSSTYYADSVKGRFTISRDNAKNTVYLQMNSLKPEDTAVYYGAATYGSGVYKYDYWGQGTQVTVSS”, the “polyreactivity (PSR sort gate)” value was “high polyreactivity”. In the case of “QDQIVESGGGYDQAGGSLRLTCAASGRIFRGNDMGSYRQAPGKERELVASISGTGGRTYYADSVKGRFTISRDNAKNTVYLQMNSLKPEDPAVYYCAVRTSLWGYYYWGHGTQVTVSS”, the “polyreactivity (PSR sort gate)” value was “high polyreactivity”. With “QVQLVESGGGLVQAGGILRLSCAASGIIYQRNAMGCYRQAPGKERQLVASITAGGDTTYYADSVKGRFTISRDNAKNTVYLQMNSLKPEDTAVYYCAVDSWLDDDDSYPDSILVDYWGQGTQVTVSS” the “polyreactivity (PSR sort gate)” value was “low polyreactivity”. For “QVQHVDSGGGLVQAGGSLRLSFAASGFRFGINAMGWYRPAPGKERELVAAISKRTGSTYYADSVKGRFTSSRDNAKNTVYLQMNSLKPEDTAVYYCNKRVFPGYRLGGFWGQGTQVTVSS”, the “polyreactivity (PSR sort gate)” value was “high polyreactivity”. In the case of “QGQLVESGGGLVQAGGSLRLSCAASGFIFDNNAMGWYRQAPGKERELVAAISFSAGSTYYADSVKGRFTISRDNAKNTVYLQMNSLNPEDTAVYYCNADDWWGGYDYWGQGTQVTVSS”, the “polyreactivity (PSR sort gate)” value was “low polyreactivity”. With “QVQLVESGGGLVHAGGSLRLSCAASGRIFDGNTMGWYRQAPGKERELVAAISGGGSTDYADSVKGRFTISRDNAKNTVYLQMNSLKPEDTAVYYCAATTGPVPLKGDYWGQGTQVTVSS” the “polyreactivity (PSR sort gate)” value was “low polyreactivity”. With “QVQLVESGGGLVQAGGSLRLSCAASGSIFAYNAMGWYRQAPGKEREFVAVITRSDDSTYADSVNGRFTISRDNAKNTVSLQMNSLKPEDTAVYYCAALQFVIDGGYRGDYWGQGTQVTVSS” the “polyreactivity (PSR sort gate)” value was “low polyreactivity”. In the case of “QVQLVESGGGLVQAGGSLRLSCAASGRILHRYVMGWYRQAPGKERELVAAISSGGSTTYADSVKGRFTISRDNAKYTVYLQMNSLKPEDTAVYYCAADARYSRRYYYWGQGTQVTVSS”, the “polyreactivity (PSR sort gate)” value was “low polyreactivity”. With “QVHLVESGGGLVQAGGSLRLTCAASGSIFLGHAMGWYRQAPGNERDLVAAISSITGRTYYADSVKGRFTISRDNAKNNVYLHMNSLKPEDTAVYYCNKVSRSFIVNTDDYWGQGTQVTVSS” the “polyreactivity (PSR sort gate)” value was “high polyreactivity”. For “QVHLVESVGGLVQAGGSLRLSCAASGRTFRRYAMVWYRQAPGKERELVATITSADSTNYADSVKGRFTISRDNAKNTVYLQMNSLKPEDTAVYYCAKRWGRYAMYYWGQGTQVTVSS”, the “polyreactivity (PSR sort gate)” value was “high polyreactivity”. With “QVQLVESGGGLVQAGGSLRLSCAASGRTFSYYAMGWYRQAPGKERELVAAISYSGGRTYYADSVKGRFTISRDNAKNTVYIQMNSLKPEDTAVYYCAPVKSRPQYGYGYWVQGTQVTVSS” the “polyreactivity (PSR sort gate)” value was “high polyreactivity”. In the case of “QVQLVESGGGLVQAGGSLRLSCAASGYTILSYGMGWYRQAPGKERELVADISSGDRTNYADSVKGRFTISRDNAKNTVYLQMNSLKPEDTAVYYCNADRASSSVGYSDDFGHDSWGQGTQVTVSS”, the “polyreactivity (PSR sort gate)” value was “low polyreactivity”. For “QVQLVDSGGGLVQAGGSLRLSCAASGRIFFANAMGWYRQAPGKERELVAAISWRGGSTYYADSVKGRFTISRDNAKNTVYLQKNSLKPEDTAVYYCAATSRGTDYWGQGTQVTLSS”, the “polyreactivity (PSR sort gate)” value was “high polyreactivity”. With “QVQLVESGGGLVQAGGRLRLSCAASGFTIRWYTMGWYRQAPGKERELVAAISRGGSTNYADSVKGRFTISRDNAKNTVYLQMNSLKPEDTAVYYCAATVYAFTYPYDYWGQGTQVTVSS” the “polyreactivity (PSR sort gate)” value was “high polyreactivity”. In the case of “QVQLVESGGGLVQAGGSLRLICAASGFTFGPYDMGGYRQAPGKERELVAAITDSSGSTHYADSVKGRFTISRDNAKNTVYLQMNSLKPEDTAVYYCAASDVVFALNGYYPGEDDYWGQGTQVTVSS”, the “polyreactivity (PSR sort gate)” value was “low polyreactivity”. With “QDQLVESGGGLVQAGGSLRLSCAASGGTFGLNAMGWYRQAPGKERELVADIDGRGGCTYYADSVKGRFTISRDNAQNTVYLQMNSLKPEDTAVYYCAARAPFLSVPTELDYWGQGTQVSVSS” the “polyreactivity (PSR sort gate)” value was “low polyreactivity”. For “QVQLVESGGGLVQAGGSLRLSCAASGFTFSWNAMGWYRQAPGKEREFVAAITSSGGSTYADSVKGRFTISRDNAKNTVYLQMNSLKPEDTAVYYCAAGGFSQHGHGYWGQGTQVTVSS”, the “polyreactivity (PSR sort gate)” value was “high polyreactivity”. With “QVQLVESGGGVVQAGGSLRLSCAASGRTFRSYAMGWYRQAPGKERELVAAISWSGGSTYYADSVKGRFTISRDNAKNTVYLQMNSLKPEDTAVYYCAATVGQRKYQLGYWGQGTQVTVSS” the “polyreactivity (PSR sort gate)” value was “high polyreactivity”. With “QVQLVESGGGLVQAGGSLRLSCAASGLTFRYYTMGWYRQAPGNERELVASSTSGGITYYADSVKGRFTISRDNAKNTVYLQMNSLKPEDPAVYYCAKGSYRTTYGALGVKYGYWGQGTQVTVSS” the “polyreactivity (PSR sort gate)” value was “high polyreactivity”. For “QVQLVESGGGLVQAGGSLRLSCAASGLIFSVYAMGWYRQAPGKVRELVAAITGSGGRTYYADSVKGRFTISRDNAKNYVYLQMNSLKPEDTAVYYCAATVSSYPYYRYYSWGQGTQVTVSS”, the “polyreactivity (PSR sort gate)” value was “high polyreactivity”. In the case of “QVQLVESGGGLVQAGGSLRLSCAASGRTLDVYAMGWYRQAPGKERELVADINWSGGRTYYADSVKGRFTISRDNAKNTVYLQMNSLIPEDTAVFYCAADLSWRQYYREYDYWGQGTQVTVSS”, the “polyreactivity (PSR sort gate)” value was “high polyreactivity”. In the case of “QVQLVESSGGLVQAGGSLSLICAASGIIFYGYAMGWYRQAPGKERELVASIRSGSNTYYADSVKGRFTISRDNAKNTVYLQMNSLKPEDTAFYSCAARVVPATFRFIRYPHPYYYWGQGTQVTVSS”, the “polyreactivity (PSR sort gate)” value was “low polyreactivity”. For “QVQLVESGGGLVQAGGSLRLSCAASGITFYGYAMGWYRQAPGKERELVAVITSSGSSTYYADSVKGRFTISRDNAKNTVYLQMNSLTPEDTAVYYCNARPGRRSLRSRTYDYWGQGTQVTVSS”, the “polyreactivity (PSR sort gate)” value was “high polyreactivity”. With “QFQLVESGGVLVQAGGSLRLSCAASGSTFNHYAMGWYRQARGKERELVADITKSGASTYADSVKGRFTISRDNAKNSVYLQMNSLKPEDTAVYYCAAGRRNYGTKGRGDYWGQGTQVTVSS” the “polyreactivity (PSR sort gate)” value was “low polyreactivity”. In the case of “QVQLVESGGGLVQAGGSLRLSCAASGRIFWDNAMGWYRQAPVKERELVAAISGGASTYADSVKGRFTISRDNAKNTVYLQMNSLKAEDTSVYYCYAFQSPVEEEYYWGQGTQVTVSS”, the “polyreactivity (PSR sort gate)” value was “low polyreactivity”. With “KVQLVQSGGGLVQAGGILRLSCAASGRIFSSYAMGWYSQAPGKERELVAVISQRGGSTSYADSVKGRFTISRDNAKNTVYLQMNSLKPEDTAVYYCARRPGKGNNYWGQGTQVTVSS” the “polyreactivity (PSR sort gate)” value was “high polyreactivity”. With “QVQLVESGGGLVQAGGSLRLSCAASGFIFYTYAMGWYRQAPGKERELVAAISRGGRTNYADSVKGRFTISRDNAKNSVYLQMNSLKPEDTAVYYCASSYSHRYDYWGQGTQVTVSS” the “polyreactivity (PSR sort gate)” value was “high polyreactivity”. In the case of “QVQLVDSWGGLVQAGGSLRLSCAASGFIFPYNTMGWYRQAPGKERELVAAISSGGSTYYADSVKGRFTISRDNAKNTVYLQMNSLKPEDTAVYYCAVRGRRSPYGYWGQGTQVTVSS”, the “polyreactivity (PSR sort gate)” value was “high polyreactivity”. In the case of “QVQLVESGGGLVQAGGSLRLSCAASGSIFYRYTMGWSRQAPGKERELVAAITYSGGSTYYADSVKGRFTISRDNAKNTVYLQMNSLIPEDTAVYYCNKDYYSGQSGYNYWGQGTQVTVSS”, the “polyreactivity (PSR sort gate)” value was “low polyreactivity”.
